Here are results for one molecule from publication PMC8411024 (Biomolecules & Therapeutics, 2021).

The test deals with T1, Human LRP6 E1E2 (21-630) (human, UniProt O75581 21-630).
T1 sequence (looked up): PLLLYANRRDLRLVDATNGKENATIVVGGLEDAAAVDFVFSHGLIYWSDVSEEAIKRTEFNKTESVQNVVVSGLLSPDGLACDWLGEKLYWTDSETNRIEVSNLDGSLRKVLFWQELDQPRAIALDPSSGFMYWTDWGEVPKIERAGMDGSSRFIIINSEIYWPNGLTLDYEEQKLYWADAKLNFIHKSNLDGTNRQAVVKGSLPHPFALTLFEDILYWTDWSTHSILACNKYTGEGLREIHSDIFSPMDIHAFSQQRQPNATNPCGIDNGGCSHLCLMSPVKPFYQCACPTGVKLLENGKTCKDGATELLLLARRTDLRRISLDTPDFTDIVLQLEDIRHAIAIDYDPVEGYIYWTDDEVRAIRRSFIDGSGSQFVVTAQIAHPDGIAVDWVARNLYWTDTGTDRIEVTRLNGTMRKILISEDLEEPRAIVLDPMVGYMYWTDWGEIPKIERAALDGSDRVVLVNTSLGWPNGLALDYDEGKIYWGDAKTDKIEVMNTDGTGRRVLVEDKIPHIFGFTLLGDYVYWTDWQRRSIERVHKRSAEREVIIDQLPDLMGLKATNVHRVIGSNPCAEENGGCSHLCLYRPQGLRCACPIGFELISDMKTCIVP
Briefly: HDX-MS.

B1: SOSTΔ (24-169) (domain or fragment, human, UniProt Q9BQB4 24-169, looked up)
chain: QGWQAFKNDATEIIPELGEYPEPPPELENNKTMNRAENGGRPPHHPFETKDVSEYSCRELHFTRYVTDGPCRSAKPVTELVCSGQCGPARLLPNAIGRGKWWRPSGPDFRCIPDRYRAQRVQLLCPGGEAPRARKVRLVASCKCKR
For B1, the binding result is listed as “binds”.
